Laboratory results reported in patent US20030108922A1.

Legend:
mouse IgG (mouse) [1] = test: sandwich immunoassay (SAM + primary Ab + mouse IgG + Ab-AP) on an Au-coated silicon wafer macrochip; CV of PAPR; antigen concentration not stated
mouse IgG (mouse) [2] = test: sandwich immunoassay (SAM + primary Ab + mouse IgG + Ab-AP) on an Au-coated LTCC macrochip, sonicated for 2 min; CV of PAPR; antigen concentration not stated
mouse IgG (mouse) [3] = test: sandwich immunoassay (SAM + primary Ab + mouse IgG + Ab-AP) on an Au-coated LTCC macrochip, not sonicated; CV of PAPR; antigen concentration not stated

secondary antibody (to mouse IgG) conjugated to alkaline phosphatase
signal (mouse IgG (mouse) [1]): 27.7 Acm^-2 | signal (mouse IgG (mouse) [2]): 30 Acm^-2 | signal (mouse IgG (mouse) [3]): 34.6 Acm^-2
